1 protein from patent US11578315B2, “Truncated guinea pig L-asparaginase variants and methods of use” (THE BOARD OF TRUSTEES OF THE UNIVERSITY OF ILLINOIS, priority 2017, dated 2023) can be followed below.

Substrate in the data set: NC(=O)C[C@H](N)C(=O)O
In words: L-asparaginase kinetics, NADH-dependent enzyme-coupled assay. The data set is classed as biochemical, E. coli. The settings on record: other: pH 7.5, 37° C., 3 nM enzyme. The protocol: The catalytic activity of the clones was determined using a spectroscopic NADH-dependent enzyme-coupled assay (Fernandez, et al. (2013) Int. J. Clin. Exp. Med. 6:478-487; Hejazi, et al. (2002) Biochem. J. 364:129-136), which measures the production of L-aspartic acid (Asp) through the 1:1 oxidation of reduced NADH. The conversion of NADH to NAD was measured spectrophotometrically as a decrease in absorbance at 340 nm at 37° C. All measurements were taken in triplicate in a buffer containing 100 mM Tris pH 7.5, 0.4 mM α-ketoglutarate and 0.4 mM NADH with 50 nM (hASNase1, hN-gC); 10 nM (gpASNase1, gN-hC, 63-hC, 64-hC, 65-hC, SA-hC) or 3 nM (ansB) enzyme. Glutamic-oxalacetic transaminase (Sigma) and malic dehydrogenase (Sigma) were helper enzymes for the coupled enzymatic reactions; 5 and 1 unit were used, respectively. Data were fit to the Michaelis-Menten equation using SigmaPlot (Systat Software Inc). Due to the cooperative nature of hASNase1, this enzyme was analyzed using the Hill equation.

B1: E. coli L-asparaginase ansB (type II) (Escherichia coli K-12) (protein)
chain: LPNITILATGGTIAGGGDSATKSNYTVGKVGVENLVNAVPQLKDIANVKGEQVVNIGSQDMNDNVWLTLAKKINTDCDKTDGFVITHGTDTMEETAYFLDLTVKCDKPVVMVGAMRPSTSMSADGPFNLYNAVVTAADKASANRGVLVVMNDTVLDGRDVTKTNTTDVATFKSVNYGPLGYIHNGKIDYQRTPARKHTSDTPFDVSKLNELPKVGIVYNYANASDLPAKALVDAGYDGIVSAGVGNGNLYKSVFDTLATAAKTGTAVVRSSRVPTGATTQDAEVDDAKYGFVASGTLNPQKARVLLQLALTQTKDPQQIQQIFNQY
notes: made in house
As for B1, the Km (commonly the concentration of substrate that gives half-maximal velocity) came to 11 ± 1 µM; the turnover number (kcat) – broadly, the number of substrate molecules converted per active site and unit of time at saturation – was 48 ± 1 s⁻¹; the specificity constant (kcat/Km) (as a rule, the turnover number divided by the Michaelis constant) amounted to 4.4e+06 M⁻¹ s⁻¹.
